How the values were obtained:
[1] = Effect of deglycosylation with PNGaseF on enzyme activity; format: biochemical; settings: 10 mM maltose, 15 min at 37° C., duplicate; for Activity, Deglycosylated: deglycosylated with PNGaseF (native conditions); for Activity, Glycosylated: glycosylated enzyme
Procedure: Approximately 2 μg of purified enzyme was treated with PNGaseF (New England Biolabs) using denaturing and native conditions. Samples that were deglycosylated using denaturing conditions were analysed by SDS PAGE, while samples deglycosylated using native conditions were used to evaluate the impact of glycosylation on enzyme activity. The activity of enzymes was measured on 10 mM maltose at 37° C. for 15 min. (Table 7). N-glycosylation was predicted by NetNGlyc (http://www.cbs.dtu.dk/services/NetNGlyc/) while O-glycosylation was predicted by OGPET (http://ogpet.utep.edu/OGPET/).

[2] = Kinetic analyses, all tested substrates; format: biochemical; settings: all tested monosaccharides and oligosaccharides
Procedure: (§1) A chromogenic assay was used to measure hydrogen peroxide production (15). Reactions contained 0.1 mM 4aminoantipyrine (4AA), 1 mM phenol, 0.5 U horseradish peroxidase, 40 mM Tris-HCl (pH 8.0), and different substrates were initiated by adding 0.2 μg of enzymes to the 250 μL reaction mixture. The production of H2O2 was coupled to the oxidation of 4aminoantipyrine by horseradish peroxidase and detected at 500 nm. Reactions were incubated at 37° C. for 15 min to measure the specific activity of GOOX on 10 mM of monosaccharide or 1 mM of oligosaccharide.
(§2) At least 12 substrate concentrations were included to obtain kinetic parameters for each substrate. Initial rates were obtained by measuring reaction products every 30 s for 15 min at 37° C. and pH 8.0, and kinetic parameters were calculated using the Michaelis-Menten equation (GraphPad Prism5 Software).

[3] = Chromogenic H2O2 oxidase assay on mannose; settings: for Specific activity Defined substrate concentration: 10 mM mannose, 37° C., 15 min
Procedure: as §1
An additional eight mutations, identified as Y72F, Y72A, E247A, E314A, W351A, N388S, Q353N, Q384A, were created in GOOX-VN to assess the influence of these residues on the substrate selectivity of GOOX-VN. […] The specific activity of each mutant was then measured at 37° C. for 15 min using 10 mM mono-sugars and 1 mM oligosaccharides as performed for Y300A, Y300N, and W351F (Table 11).

[4] = substrate: CC(=O)N[C@H]1C(O)O[C@H](CO)[C@@H](O)[C@@H]1O; assay: purified protein, by the assay type; settings: other: 37° C., pH 8.0
Procedure: as §1, §2

[5] = substrate: OC1OC[C@@H](O)[C@H](O)[C@H]1O; assay: purified protein, by the assay type; settings: other: 37° C., pH 8.0
Procedure: as §1, §2

[6] = substrate: OC1OC[C@@H](O[C@@H]2OC[C@@H](O)[C@H](O)[C@H]2O)[C@H](O)[C@H]1O; assay: purified protein, by the assay type; settings: other: 37° C., pH 8.0
Procedure: as §1, §2

[7] = substrate: OC1OC[C@@H](O[C@@H]2OC[C@@H](O[C@@H]3OC[C@@H](O)[C@H](O)[C@H]3O)[C@H](O)[C@H]2O)[C@H](O)[C@H]1O; assay: purified protein, by the assay type; settings: other: 37° C., pH 8.0
Procedure: as §1, §2

[8] = substrate: OC[C@H]1OC(O)[C@H](O)[C@@H](O)[C@@H]1O; assay: purified protein, by the assay type; settings: other: 37° C., pH 8.0
Procedure: as §1, §2

[9] = substrate: OC[C@H]1OC(O)[C@H](O)[C@@H](O)[C@H]1O; assay: purified protein, by the assay type; settings: other: 37° C., pH 8.0
Procedure: as §1, §2

[10] = substrate: OC[C@H]1O[C@@H](O[C@H]2[C@H](O)[C@@H](O)C(O)O[C@@H]2CO)[C@H](O)[C@@H](O)[C@@H]1O; assay: purified protein, by the assay type; settings: other: 37° C., pH 8.0
Procedure: as §1, §2

[11] = substrate: OC[C@H]1O[C@@H](O[C@H]2[C@H](O)[C@@H](O)[C@H](O[C@H]3[C@H](O)[C@@H](O)C(O)O[C@@H]3CO)O[C@@H]2CO)[C@H](O)[C@@H](O)[C@@H]1O; assay: purified protein, by the assay type; settings: other: 37° C., pH 8.0
Procedure: as §1, §2

[12] = substrate: OC[C@H]1O[C@H](O[C@H]2[C@H](O)[C@@H](O)C(O)O[C@@H]2CO)[C@H](O)[C@@H](O)[C@@H]1O; assay: purified protein, by the assay type; settings: other: 37° C., pH 8.0
Procedure: as §1, §2

[13] = Chromogenic H2O2 oxidase assay / kinetic analysis on NAG; settings: for Specific activity Defined substrate concentration: 10 mM NAG, 37° C., 15 min; for Specific activity From Vmax: substrate NAG
Procedure: as §1, §2

[14] = Chromogenic H2O2 oxidase assay / kinetic analysis on xylose; settings: for Specific activity Defined substrate concentration: 10 mM xylose, 37° C., 15 min; for Specific activity From Vmax: substrate xylose
Procedure: as §1, §2

[15] = Chromogenic H2O2 oxidase assay / kinetic analysis on glucose; settings: for Specific activity Defined substrate concentration: 10 mM glucose, 37° C., 15 min; for Specific activity From Vmax: substrate glucose
Procedure: as §1, §2

[16] = Chromogenic H2O2 oxidase assay / kinetic analysis on maltose; settings: for Specific activity Defined substrate concentration: 1 mM maltose, 37° C., 15 min; for Specific activity From Vmax: substrate maltose
Procedure: as §1, §2

[17] = Chromogenic H2O2 oxidase assay / kinetic analysis on galactose; settings: for Specific activity Defined substrate concentration: 10 mM galactose, 37° C., 15 min; for Specific activity From Vmax: substrate galactose
Procedure: as §1, §2

[18] = Chromogenic H2O2 oxidase assay / kinetic analysis on xylobiose; settings: for Specific activity Defined substrate concentration: 1 mM xylobiose, 37° C., 15 min; for Specific activity From Vmax: substrate xylobiose
[19] = Chromogenic H2O2 oxidase assay / kinetic analysis on cellobiose; settings: for Specific activity Defined substrate concentration: 1 mM cellobiose, 37° C., 15 min; for Specific activity From Vmax: substrate cellobiose
[20] = Chromogenic H2O2 oxidase assay / kinetic analysis on xylotriose; settings: for Specific activity Defined substrate concentration: 1 mM xylotriose, 37° C., 15 min; for Specific activity From Vmax: substrate xylotriose
Procedure: as §1, §2

[21] = Chromogenic H2O2 oxidase assay / kinetic analysis on cellotriose; settings: for Specific activity Defined substrate concentration: 1 mM cellotriose, 37° C., 15 min; for Specific activity From Vmax: substrate cellotriose
Procedure: as §1, §2

Activity, Deglycosylated [1] [nmol/min] | Activity, Glycosylated [1] [nmol/min] | activity on mannose (in words) [3] | Molecule | catalytic activity (kcat) relative to GOOX-VN [2] | Specific activity Defined substrate concentration [3] [µmol/mg/min] | Km [4] [mM] | Km [5] [mM] | Km [6] [mM] | Km [7] [mM] | Km [8] [mM] | Km [10] [mM] | Km [11] [mM] | Km [12] [mM] | kcat [12] [s⁻¹] | kcat/Km [12] [M⁻¹ s⁻¹] | Specific activity Defined substrate concentration [13] [µmol/mg/min] | Specific activity From Vmax [13] [µmol/mg/min] | Specific activity Defined substrate concentration [14] [µmol/mg/min] | Specific activity From Vmax [14] [µmol/mg/min] | Specific activity Defined substrate concentration [15] [µmol/mg/min] | also measured
3.9 | 4.09 | low activity | Acremonium strictum gluco-oligosaccharide oxidase GOOX-VN variant 1 Y300A, SEQ ID NO. 6 (Sarocladium strictum; A38V/S388N/Y300A) (protein) NSINACLAAADVEFHEEDSEGWEMDGTAFNLRVDYDPVAIAIPRSTEDIAAAVQCGLDAGVQISAKGGGHSYGSYGFGGEDGHLMLELDRMYRVSVDDDNVATIQGGARLGYTALELLDQGNRALTHGTCPAVGIGGHVLGGGYGFATHTHGLTLDWLVGATVVLADASIVHVSKTENADLFWALRGGGGGFAIVSEFEFNTFEAPEIITTYQVTTTWNRKQHVAGLKALQDWAENTMPRELSMRLEINANALNWEGNYFGNAKDLKKVLQPIMKKAGGKSTISKLVETDWYGQINTYLAGADLNITYNYDVHEYFYANSLTAPRLSDEAISAFVDYKFDNSSVRPGRGWWIQWDFHGGKNSALASHSNDETAYAHRDQLWLWQFYDNIYDYENNTSPYPESGFEFMQGFVATIEDTLPEDRKGKYFNYADTTLDKEEAQKLYWRGNLEKLQAIKAKYDPEDVFGNVVSVEPIA | approximately two times higher | 0.11 | 92.4 ± 4.65 | 51.84 ± 1.90 | 5.11 ± 0.15 | 3.15 ± 0.11 | 8.11 ± 0.40 | 0.24 ± 0.02 | 0.25 ± 0.02 | 11.00 ± 0.53 | 10.4 ± 0.123 | 947 ± 46.7 | 1.1 | 12.67 | 1.57 | 11.22 | 7.15 | kcat [4]: 12.8 ± 0.223 s⁻¹; kcat/Km [4]: 138 ± 6.67 M⁻¹ s⁻¹; Km [9]: 96.39 ± 5.15 mM; Specific activity From Vmax [15]: 13.09 µmol/mg/min; Specific activity Defined substrate concentration [16]: 0.85 µmol/mg/min; Specific activity From Vmax [16]: 10.31 µmol/mg/min; Specific activity Defined substrate concentration [17]: 1.15 µmol/mg/min; Specific activity From Vmax [17]: 13.17 µmol/mg/min; Specific activity Defined substrate concentration [18]: 2.10 µmol/mg/min; Specific activity From Vmax [18]: 13.16 µmol/mg/min; Specific activity Defined substrate concentration [19]: 10.72 µmol/mg/min; Specific activity From Vmax [19]: 13.58 µmol/mg/min; Specific activity Defined substrate concentration [20]: 3.22 µmol/mg/min; Specific activity From Vmax [20]: 13.73 µmol/mg/min; Specific activity Defined substrate concentration [21]: 9.03 µmol/mg/min; Specific activity From Vmax [21]: 11.00 µmol/mg/min
2.78 | 2.6 | low activity | Acremonium strictum gluco-oligosaccharide oxidase GOOX-VN variant 2 Y300N, SEQ ID NO. 7 (Sarocladium strictum; A38V/S388N/Y300N) (protein) NSINACLAAADVEFHEEDSEGWEMDGTAFNLRVDYDPVAIAIPRSTEDIAAAVQCGLDAGVQISAKGGGHSYGSYGFGGEDGHLMLELDRMYRVSVDDDNVATIQGGARLGYTALELLDQGNRALTHGTCPAVGIGGHVLGGGYGFATHTHGLTLDWLVGATVVLADASIVHVSKTENADLFWALRGGGGGFAIVSEFEFNTFEAPEIITTYQVTTTWNRKQHVAGLKALQDWAENTMPRELSMRLEINANALNWEGNYFGNAKDLKKVLQPIMKKAGGKSTISKLVETDWYGQINTYLNGADLNITYNYDVHEYFYANSLTAPRLSDEAISAFVDYKFDNSSVRPGRGWWIQWDFHGGKNSALASHSNDETAYAHRDQLWLWQFYDNIYDYENNTSPYPESGFEFMQGFVATIEDTLPEDRKGKYFNYADTTLDKEEAQKLYWRGNLEKLQAIKAKYDPEDVFGNVVSVEPIA | approximately two times higher | 0.19 | 55.95 ± 1.93 | 32.01 ± 1.67 | 4.83 ± 0.17 | 4.32 ± 0.25 | 3.11 ± 0.12 | 0.38 ± 0.02 | 0.44 ± 0.01 | 19.61 ± 0.66 | 10.4 ± 0.105 | 530 ± 18.3 | 1.5 | 11.22 | 2.32 | 11.48 | 8.32 | Specific activity From Vmax [15]: 10.70 µmol/mg/min; Specific activity Defined substrate concentration [16]: 0.49 µmol/mg/min; Specific activity From Vmax [16]: 10.30 µmol/mg/min; Specific activity Defined substrate concentration [17]: 0.95 µmol/mg/min; Specific activity From Vmax [17]: 11.64 µmol/mg/min; Specific activity Defined substrate concentration [18]: 1.83 µmol/mg/min; Specific activity From Vmax [18]: 11.84 µmol/mg/min; Specific activity Defined substrate concentration [19]: 8.15 µmol/mg/min; Specific activity From Vmax [19]: 11.29 µmol/mg/min; Specific activity Defined substrate concentration [20]: 2.00 µmol/mg/min; Specific activity From Vmax [20]: 11.85 µmol/mg/min; Specific activity Defined substrate concentration [21]: 6.90 µmol/mg/min; Specific activity From Vmax [21]: 9.88 µmol/mg/min
